Legend:
[1] = tested on: T1, Suc-Ile-Ala-Leu-Dox
T1 sequence: XAX

[2] = tested on: T2, Suc-Leu-Ala-Gly-Dox
T2 sequence: XAX

[3] = tested on: T3, Suc-Leu-Ala-Leu-Dox
T3 sequence: XAX

[4] = tested on: T4, Suc-βAla-Ile-Ala-Leu-Dox
T4 sequence: XIAX

[5] = tested on: T5, Suc-βAla-Leu-Ala-Leu-Dox
T5 sequence: XLAX

[6] = tested on: T6, Suc-Leu-Tyr-Leu-Dox
T6 sequence: XYX

[7] = tested on: T7, Suc-Met-Ala-Leu-Dox
T7 sequence: XAX

[8] = tested on: T8, Suc-βAla-Leu-Ala-Leu-pNA
T8 sequence: XLAX

[9] = tested on: T9, Suc-βAla-Leu-Tyr-Leu-Dox
T9 sequence: XLYX

[10] = scale: fraction relative to Suc-βAla-Leu-Ala-Leu-Dox

thimet oligopeptidase
Cleavage by thimet oligopeptidase [1]: -
Cleavage by thimet oligopeptidase [2]: +
Cleavage by thimet oligopeptidase [3]: +
Cleavage by thimet oligopeptidase [4]: -
Cleavage by thimet oligopeptidase [5]: +

purified Porcine Kidney CD10 (Elastin Products Company)
% hydrolysis/10 hr (% hydrolysis/10 hr) [1]: 12.5
Cleaved by CD10 [1]: +
Fraction hydrolyzed relative to standard [1, 10]: 1.1
% hydrolysis/10 hr (% hydrolysis/10 hr) [2]: 0
Cleaved by CD10 [2]: -
Fraction hydrolyzed relative to standard [2, 10]: 0
% hydrolysis/10 hr (% hydrolysis/10 hr) [3]: 8.3
Cleaved by CD10 [3]: +
Fraction hydrolyzed relative to standard [3, 10]: 0.75
% hydrolysis/10 hr (% hydrolysis/10 hr) [6]: 0
Fraction hydrolyzed relative to standard [6, 10]: 0
% hydrolysis/10 hr (% hydrolysis/10 hr) [7]: 37.7
Fraction hydrolyzed relative to standard [7, 10]: 3.5
% hydrolysis/10 hr (% hydrolysis/10 hr) [4]: 22.1
Cleaved by CD10 [4]: +
Fraction hydrolyzed relative to standard [4, 10]: 2
% hydrolysis/10 hr (% hydrolysis/10 hr) [5]: 10.9
Cleaved by CD10 [5]: +
Fraction hydrolyzed relative to standard [5, 10]: 1
rate of cleavage (release of Leu-pNA) relative to Suc-βAla-Leu-Ala-Leu-Dox (release of Leu-Dox) [8]: 590 times more rapidly cleaved
% hydrolysis/10 hr (% hydrolysis/10 hr) [9]: 0
Fraction hydrolyzed relative to standard [9, 10]: 0

— US20040087497
